The target in one assay is Spike protein NTD (Severe acute respiratory syndrome …, UniProt P0DTC2). Briefly: ELISA. In general terms: ELISA stands for enzyme-linked immunosorbent assay.
The target in another assay is Spike protein RBD (Severe acute respiratory syndrome …, UniProt P0DTC2). As to the kind of experiment: ELISA.

B1: Asialoglycoprotein receptor 1 (protein)
chain: MTKEYQDLQHLDNEESDHHQLRKGPPPPQPLLQRLCSGPRLLLLSLGLSLLLLVVVCVIGSQNSQLQEELRGLRETFSNFTASTEAQVKGLSTQGGNVGRKMKSLESQLEKQQKDLSEDHSSLLLHVKQFVSDLRSLSCQMAALQGNGSERTCCPVNWVEHERSCYWFSRSGKAWADADNYCRLEDAHLVVVTSWEEQKFVQHHIGPVNTWMGLHDQNGPWKWVDGTDYETGFKNWRPEQPDDWYGHGLGGGEDCAHFTDDGRWNDDVCQRPYRWVCETELDKASQEPPLL
For B1, the dissociation constant Kd (as a rule, a measure of binding affinity in units of concentration) with Spike protein NTD is 179 nM; in the assay with Spike protein RBD, 269 nM.
